Assay results as given in patent US20190111164A1 (published 2019).
Residue numbers refer to the chain shown, from its start.

B1: 2F3#633 (antibody, V domains shown)
VH: EVQLLESGGGLVQPGGSLRLSCAASGFTFDSYAMSWVRQAPGKGLEWVSAISGSGASTYYADSVKGRFSISRDNSKNTLYLQMNSLRAEDTAVYYCAIRREYSGYTPFDYWGQGTLVTVSS
VL: DIVMTQTPSSLSASVGDRVTITCRASQGISSWLAWYQQKPEKAPRSLIYAASSLQSGVPSRFSGSGSGTDFTLTISSLQPEDFATYYCQQYISYPYTFGQGTKLEIK
B2: 2F3#6 (antibody, V domains shown)
VH: B1 VH with E1Q, T106A, T118I
VL: B1 VL
B3: 2F3#1733 (antibody, V domains shown)
VH: B1 VH with E1Q, V2I, Q3T, L5R, A56H, S85N
VL: B1 VL

Molecular target: dBSM (bovine)
Test: ELISA

Binder | EC50 [nM]
B1 | 8.72
B2 | 24.4
B3 | 13.6
